Results from article PMC4183369.

Molecular target: gp59(C42)-Cy3, helicase loader protein of the T4 bacteriophage DNA replisome (bacteriophage T4) (UniProt P13342)
Assay: FRET or BRET

Sequence of UniProt P13342 (P13342 whole entry): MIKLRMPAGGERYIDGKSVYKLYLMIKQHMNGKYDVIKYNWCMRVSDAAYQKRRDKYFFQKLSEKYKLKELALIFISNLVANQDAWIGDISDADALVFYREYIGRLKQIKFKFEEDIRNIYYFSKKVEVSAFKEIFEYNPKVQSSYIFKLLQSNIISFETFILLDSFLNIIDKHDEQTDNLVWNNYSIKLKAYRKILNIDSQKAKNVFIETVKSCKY

Question: How did the duration of a single FRET event turn out when “Cy5-N-gp43(exo-), T4 gp43 polymerase (from UniProt P04415 1-898) (enzyme)” was run?
Answer: > 80 s
